Test results reported in patent publication US20210292423A1 (published 2021).
Numbering of substitutions follows the chain as printed.

B1: 10E6-G6 Fab (Fab, V domains shown)
VH: EVQLVETGGGLVQSGKSLKLTCATSGFTVTNAWMHWVRQSPEKQLEWVAQIKAKSNNYETYYAESVKGRFTISRDDSKSSVYLQMNSLKEEDTAIYYCRGTQYGYNPFDYWGQGVMVTVSS
VL: DVVMTQSPVSLSVSLGGQVSISCRSSQSLVHNNGYTYLSWYLQKPGQSPQVFIYKVSNRFSGISDRFSGSGSGTDFTLKISRIEPDDLGVYYCGQGTHYPFTFGSGTKLEIK
B2: 18F5-H10 Fab (Fab, V domains shown)
VH: EVQVVETGGSLVQPGKSLKLTCATSGFTFTNAWMHWVRRSPEKQLEWVAQIKDKSNNYATYYAESVKGRFTISRDDSKSSIYLQMNSLKEEDTAIYYCRYVHYRFAYALDAWGRGTSVSVSS
VL: DVLMTQTPVSLSVSLGGQVSISCRSSQSLVHTNGNTYLSWYLQKPGQSPQLLIYKVSNRLSGISDRFSGSGSGTDFTLKISRVEPDDLGVYYCGQGTHYPFTFGAGTKLELKR
notes: also called BDX-18F5-H10
B3: 18G9-H11 Fab (Fab, V domains shown)
VH: EVQLVETGGSLVQPGKSLKLTCATSGFTFSNAWIQWVRQSPEKQLEWVAQIKAKSNNYATYYAESVKGRFTISRDDSKSSVYLQMNSLKEEDTALYYCTWRHYYSSHTMDAWGQGTLVTVSS
VL: DVVMTQTPVSLSVSLGGQVSISCRSSQSLVHNNGNTYLSWYLQKPGQSPQLLIYKVSNRFSGISDRFSGSGSGTDFTLKISRVAPTDLGVYYCGQGSQYPFTFGAGTKLELK
B4: 11F9-F8 Fab (Fab, V domains shown)
VH: B1 VH with G10T, S14P, V29F, T30S, E59A, S79T, M85L, K89R
VL: B1 VL with M4L, S7T, Y35N, Y41S, F52L, D65N, I83V, T97A
notes: also called 11F9-F8-huFab
B5: 20E5-F10 Fab (Fab, V domains shown)
VH: EVQLVETGENLVQPGKSLRLTCATSGFSFSNAWMHWIRQSPEKQLEWVAQIKDKSNNYATYYAESVNGRFTISRDDSKSSIYLHMDNLKEEDSAIYYCRYVHYGVRFFYTMDVWGQGTSVTVSS
VL: B1 VL with S7T, G17D, S25P, Y35N, Q50H, V51P, F52L, I83V, H98Q
notes: also called 20E5-F10-huFab
B6: 13H2-C2 Fab (Fab, V domains shown)
VH: EEELVETGGSLVQPGKSLKLTCATSGFTFSNAWMHWVRQSPDKQLEWVAQIKAKSNNYATYYAESVKGRFTISRDDSKSSVYLQMNNLKEEDTAIYYCRYVHYGLAPMDAWGQGTSVTVSS
VL: B3 VL with P45A, T77I, A84E, T86D, Y91F, S97T
notes: also called 13H2-C3
B7: 12G3-E8 Fab (Fab, V domains shown)
VH: EVRVVETGGSLVQPGKSLKLTCATSGFTFSLAWMHWVRQSPEKKLEWVAQIKDKANNYATYYAESVKGRFTISRDDSKRSVYLQMNRLKEEDTAIYYCRGVYYGFSMTPFDYWGQGVMVTVSS
VL: B3 VL with V3A, L51V, T74A, A84E, T86D, S97T
B8: 1E6-C9 Fab (Fab, V domains shown)
VH: EVQLVETGGSLVQPGKSLKLTCATSGFTFSYAWMHWVRQSPDKQLQWVAQIKAKSNNYATYYAESVEGRFTISRDDSKSSVYLQMNSLKEEDTAIYYCRGVYYGLLGLDAWGQGTSVTVSS
VL: B1 VL with S7T, S14R, Y35N, Y41F, V51L, F52L, G71A, I83V
notes: also called 1E6-B8; 1E6-B8/B9-C9-Fab

Key:
[1] = molecular target: T1, human CD3ε/δ-Fc fusion protein (soluble recombinant CD3ε/δ complex) (human, UniProt P04234 22-105); assay: SPR, CD3-Fc captured, Fab 100 nM
T1 construct: also called huCD3ε/δ; huCD3; not shown: hinge, CH2, CH3 of human IgG with tag
T1 sequence (chain, as listed by the source mutant, chain 1 of 2): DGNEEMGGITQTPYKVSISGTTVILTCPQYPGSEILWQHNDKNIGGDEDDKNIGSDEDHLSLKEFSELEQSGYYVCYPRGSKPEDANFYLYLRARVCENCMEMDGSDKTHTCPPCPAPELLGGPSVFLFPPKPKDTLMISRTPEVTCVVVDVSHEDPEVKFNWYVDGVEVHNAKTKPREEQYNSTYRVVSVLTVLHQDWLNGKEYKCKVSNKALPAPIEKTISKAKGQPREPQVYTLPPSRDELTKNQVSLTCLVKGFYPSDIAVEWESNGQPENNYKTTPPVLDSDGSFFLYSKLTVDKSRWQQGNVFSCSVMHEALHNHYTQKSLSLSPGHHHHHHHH
T1 sequence (P04234 22-105, stated change not applied, chain 2 of 2): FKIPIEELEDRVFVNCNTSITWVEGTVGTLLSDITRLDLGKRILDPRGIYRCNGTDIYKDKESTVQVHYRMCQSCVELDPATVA
Protocol: (§1) Binding was tested by SPR using a BIAcore3000 instrument run with HBS-EP buffer. Recombinant huCD3 proteins (ε/δ (PB01226), ε/γ (PB01225)) were captured at 10 μl/min via Fc-tag by anti-human Fc capture antibody MAB1302 (Millipore) immobilized on a CM5 sensor chip. Anti-CD3 Fabs were used as analytes at 100 nM with association and dissociation times of 240 sec and 300 sec, respectively at 30 μl/min. After each cycle the surfaces were regenerated by a 2 min pulse of 10 mM glycine buffer pH2.5.

[2] = molecular target: recombinant huCD3ε/γ protein with Fc-tag (PB01225) (human, UniProt P07766 23-126; P09693 23-116); assay: SPR, CD3-Fc captured, Fab 100 nM
Protocol: as §1

[3] = molecular target: T2, human CD3ε expressed alone on HEK293F cells (human, UniProt P07766 23-207); assay: flow cytometry, transfected HEK293F
T2 construct: also called huCD3ε
Protocol: (§2) To analyze binding of antibodies to human CD3ε and human CD3δ expressed on the surface of cells, HEK293F cells were transfected with both constructs either alone or in co-transfection and signals were measured by flow cytometry. For transfection procedure FuGENE HD Transfection Reagent (Promega, #E2311) was used according to manufacturer's protocol.
(§3) Antibodies for staining were seeded at 1 μg in 50 μl per well Stain Buffer with FBS (BD Pharmingen) in 96-well U-bottom suspension culture plates (Greiner bio-one). Harvested transfected cells were resuspended in Stain Buffer with FBS and were added at 50 μl per well to the antibodies. Cells were incubated at 4° C. in the dark for 30 min and were washed twice. 0.5 μg secondary antibody Goat F(ab′)2 Anti-Human IgG-FITC (Beckman Coulter, #732598) or Goat F(ab′)2 Anti-Human kappa-PE (Southern Biotech, #206209), respectively, in combination with 0.5 μg 7-AAD per well was added in 100 μl Stain Buffer with FBS. Cells were incubated at 4° C. in the dark for 15 min and were washed twice. For measurement, cells were resuspended in 200 μl Stain Buffer with FBS. Cells were measured using the MACSQuant (Miltenyi Biotec) or LSRII (BD) flow cytometer, respectively. Further data analyses were performed using the FlowJo software (Tree Star, Inc.).

[4] = molecular target: T3, human CD3ε and CD3δ co-expressed on HEK293F cells (human, UniProt P07766 23-207; P04234 22-171); assay: flow cytometry, transfected HEK293F
T3 construct: also called huCD3ε/δ (transfected cells); huCD3e + huCD3d
Protocol: as §2, §3

[5] = molecular target: T4, human CD3 (TCR complex) on primary human T cells or Jurkat cells (human, UniProt P07766 23-207); assay: flow cytometry, primary human T cells
T4 construct: on the cells it stands in the whole TCR/CD3 complex; also called Jurkat E6-1 (expressing human TCR)
Protocol: The binding capacity of the CD3-Fabs was determined by flow cytometry. Primary human T cells were used as target cells. Therefore, peripheral blood mononuclear cells (PBMCs) were isolated from 200 ml peripheral blood of healthy donors treated with EDTA by Ficoll density centrifugation. 15 ml Histopaque (Sigma-Aldrich) was preloaded on a 50 ml Leucosep-Tube (Greiner bio-one). Blood was diluted with autoMACS Rinsing Buffer+1% BSA (Miltenyi Biotec) and loaded on the membrane of a total of ten prepared tubes. Tubes were centrifuged without brake for 10 min at 1000 xg. PBMCs were collected and washed with autoMACS Rinsing Buffer+1% BSA three times. Finally, PBMCs were resuspended in autoMACS Running Buffer (Miltenyi Biotec) for isolation of T lymphocytes by autoMACSpro technology using the Pan T Cell isolation Kit (Miltenyi Biotec) according to manufacturer's instructions. Purity of separated T cells was analyzed by MACSQuant flow cytometry using the human 7-Color Immunophenotyping Kit (Miltenyi Biotec). Isolated T cells were resuspended in Stain Buffer with FBS (BD Pharmingen) and 1E5 cells in 100 μl per well were seeded in 96-well U-bottom suspension culture plates (Greiner bio-one). Fab antibodies were diluted 1:3 in serial in PBS (Invitrogen) and 5 μl each were added to the cells at a final maximum concentration of 30000 ng/ml. The assay was incubated for 45 min at 4° C. Cells were washed twice with Stain Buffer with FBS and 1 μg secondary antibody Goat F(ab′)2 Anti-Human kappa-FITC (Beckman Coulter, #732621) per well was added in 100 μl Stain Buffer with FBS per well. The assay was incubated for 20 min at 4° C. and washed twice afterwards. Cells were resuspended in 150 μl Stain Buffer with FBS per well and were measured using the MACSQuant (Miltenyi Biotec) or LSRII (BD) flow cytometer. Further data analyses were performed using the FlowJo software (Tree Star, Inc.). Read out was percentage of cells positive for antibody binding. Cells treated only with the secondary but no primary antibody were used to set the gates. EC50 Curves were calculated by XLfit (Algorithm 205), EC50 values were calculated as inflection point of the slope (data are shown in table 6).

[6] = molecular target: T1, human CD3ε/δ-Fc fusion protein (soluble …); assay: SPR Biacore, CD3εδ-Fc captured, Fab analyte
Protocol: (§4) Binding affinities of anti-CD3 binding Fabs or CODV-Fabs were measured by surface plasmon resonance (SPR) using a Biacore3000 instrument (GE Healthcare). Assay buffer was HBS-EP (BR-1001-88, GE Healthcare). Capture of CD3ε/δ-Fc fusion proteins was achieved using the human antibody capture kit (GE Healthcare). […] The CD3εδ-Fc fusions proteins were captured at 10 μl/min to approx. 70 RU to yield Rmax values of 30 RU. Binding kinetics with the anti-CD3 Fabs or CODV-Fabs was measured at 30 μl/min for 240 sec. and 600 sec. for association and dissociation phase, respectively. Twofold dilutions of Fabs from 3 to 400 nM in assay buffer were used. All Fab concentrations were run in duplicate together with duplicate buffer blanks for double referencing. Regeneration of the capture surface was performed with a 1 min injection of 3M MgCl2 solution at 30 μl/min. For data analysis the BIAevaluation software v.4.1 (GE Healthcare) was used. Data were fit globally using a 1:1 Langmuir model with mass transfer.

[7] = molecular target: T5, human CD3δ expressed alone on HEK293F cells (human, UniProt P04234 22-171); assay: flow cytometry, HEK293F transfected with huCD3δ
T5 construct: entry includes the signal peptide; also called huCD3δ
T5 sequence (P04234 22-171 limits assumed, stated change not applied): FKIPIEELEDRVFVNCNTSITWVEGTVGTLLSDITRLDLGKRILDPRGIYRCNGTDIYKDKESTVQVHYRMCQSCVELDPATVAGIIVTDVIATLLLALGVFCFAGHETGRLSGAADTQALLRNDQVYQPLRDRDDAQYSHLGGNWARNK
Protocol: as §2
Cells were incubated on a shaker at 37° C. and 5% CO2. At day one to three after transfection cells were harvested and binding of antibodies was analyzed by flow cytometry.
as §3

[8] = molecular target: T1, human CD3ε/δ-Fc fusion protein (soluble …); assay: SPR Biacore, Fab
Protocol: as §4

Binder	RU of Fab binding at 100 nM [1] [RU]	RU of Fab binding at 100 nM [2] [RU]	% antibody positive transfected cells [3] [%]	% antibody positive transfected cells [4] [%]	EC50 [5] [nM]	Kd [6] [nM]	koff [6] [s⁻¹]	kon [6] [M⁻¹ s⁻¹]	binding result [7]	Kd [8] [nM]	koff [8] [s⁻¹]	kon [8] [M⁻¹ s⁻¹]
B1	11	8	96.3	93.3	4.7	14	0.002	140000	no binding (tested: <20% of binding of huCD3e + huCD3d)			
B2	13	7	70.6	70.4	4.1	0.89	0.00018	200000	no binding (tested: <20% of binding of huCD3e + huCD3d)	1	0.00018	200000
B3	10	3	95	97	1.7	4.4	0.0011	250000	no binding (tested: <20% of binding of huCD3e + huCD3d)			
B4	10	7	97	96	11.6	5.2	0.0004	77000	no binding (tested: <20% of binding of huCD3e + huCD3d)			
B5	11	8	96.7	95.3	8.2	4.3	0.00043	99000	no binding (tested: <20% of binding of huCD3e + huCD3d)			
B6	9	6	93.3	93	14.3	29	0.0049	170000	no binding (tested: <20% of binding of huCD3e + huCD3d)			
B7	10	7	96.3	96.7	4.4	9.3	0.0011	110000	no binding (tested: <20% of binding of huCD3e + huCD3d)			
B8	10	7	87.7	91.7	18.7	41	0.0039	93000	no binding (tested: <20% of binding of huCD3e + huCD3d)			
